# Measured values taken from article PMC8829827, “Dynamics of Cations around DNA and Protein as Revealed by 23Na Diffusion NMR Spectroscopy”.
# B1: 15-bp DNA duplex with Antp recognition sequence (dsDNA)
# DNA 1: AGAAAGCCATTAGAG
# DNA 2: CTCTAATGGCTTTCT
# Target: Antp homeodomain (C39S) (fruit fly, UniProt P02833 297-356, C335S)
# Experiment: 23Na diffusion NMR (Na+ release on complex formation); 1.10 mM protein, 1.52 mM DNA; 14.7 +/- 1.7 Na+ released per complex; sodium succinate buffer (20 mM Na+, 11.3 mM succinate), pH 5.8, 25 C
# Conditions: protein: recombinant; blunt
# Chain of Antp homeodomain (C39S) (P02833 297-356 C335S): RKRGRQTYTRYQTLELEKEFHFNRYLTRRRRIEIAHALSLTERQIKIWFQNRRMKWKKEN
binder,measurement,value
B1,binding result,binds
